In series [1] the test system is HeLa Kyoto. Nature of the series: solubility change mitosis vs G1/S (difference of NP-40 vs SDS log2 ratios) (log2 ratio difference); higher = more soluble in mitosis.
Series [2] relates to HeLa Kyoto. The series is described as follows: thermal stability score vs G1/S (z-score of summed log2 fold changes over temperatures); higher = more thermally stable than in G1/S.
For series [3], the system named is HeLa Kyoto. The series is described as follows: melting temperature (median over replicates), in situ; higher = more thermally stable.
In series [4] the test system is HeLa Kyoto. The series is described as follows: solubility in G1/S (NP-40 vs SDS abundance) (log2 ratio); higher = more soluble. The note with it: cell cycle stage: G1/S.
Where [5] appears, read: cell cycle stage: early G1 (4.5 h after nocodazole release).
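For melting temperature (median over replicates), in situ in this document: HeLa Kyoto cells synchronized by double thymidine or nocodazole block, proteins quantified by TMT10plex mass spectrometry, three independent biological replicates.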
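For solubility change mitosis vs G1/S (difference of NP-40 vs SDS log2 ratios) in this document: synchronized HeLa Kyoto cells (double thymidine block for G1/S, nocodazole release for mitosis), protein amounts in NP-40 versus SDS lysates quantified by mass spectrometry, three biological replicates.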
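For solubility in G1/S (NP-40 vs SDS abundance) in this document: HeLa Kyoto cells arrested at G1/S by double thymidine block, proteins quantified by TMT10plex mass spectrometry in mild NP-40 versus SDS extracts, three biological replicates.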
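For thermal stability score vs G1/S (z-score of summed log2 fold changes over temperatures) in this document: synchronized HeLa Kyoto cells, proteins quantified by TMT10plex mass spectrometry, three biological replicates, mitosis taken 0.5 h after nocodazole release, G1/S directly after double thymidine block.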

As for “MSVSLVVIRLELAEHSPVPAGFGFSAAAGEMSDEEIKKTTLASAVACLEGKSPGEKVAIIHQHLGRREMTDVIIETMKSNPDELKTTVEERKSSEASPTAQRSKDHSKECINAAPDSPSKQLPDQISFFSGNPSVEIVHGIMHLYKTNKMTSLKEDVRRSAMLCILTVPAAMTSHDLMKFVAPFNEVIEQMKIIRDSTPNQYMVLIKFRAQADADSFYMTCNGRQFNSIEDDVCQLVYVERAEVLKSEDGASLPVMDLTELPKCTVCLERMDESVNGILTTLCNHSFHSQCLQRWDDTTCPVCRYCQTPEPVEENKCFECGVQENLWICLICGHIGCGRYVSRHAYKHFEETQHTYAMQLTNHRVWDYAGDNYVHRLVASKTDGKIVQYECEGDTCQEEKIDALQLEYSYLLTSQLESQRIYWENKIVRIEKDTAEEINNMKTKFKETIEKCDNLEHKLNDLLKEKQSVERKCTQLNTKVAKLTNELKEEQEMNKCLRANQVLLQNKLKEEERVLKETCDQKDLQITEIQEQLRDVMFYLETQQKINHLPAETRQEIQEGQINIAMASASSPASSGGSGKLPSRKGRSKRGK [BRAP]”, the “solubility change mitosis (log2)” value in the series with HeLa Kyoto [1] is -0.181. The thermal stability score in the series on HeLa Kyoto [2] (setting [5]) amounted to 0.558; in the series with HeLa Kyoto [2] (cell cycle stage: mitosis), 1.83. Besides, the melting temperature in the series on HeLa Kyoto [3] (cell cycle stage: G1/S) worked out at 50.3 °C; with HeLa Kyoto [3] (cell cycle stage: mitosis) it was 50.2 °C. Further, the “solubility in G1/S (log2)” value in the series on HeLa Kyoto [4] is 0.1.

Consider EIF5A, for which, in the series with HeLa Kyoto [1], the “solubility change mitosis (log2)” value was 0.0244. Besides, the thermal stability score came out at 0.791 with HeLa Kyoto [2] (setting [5]) and 0.0469 in the series with HeLa Kyoto [2] (cell cycle stage: mitosis). Also, the figures for the melting temperature in the series with HeLa Kyoto [3] (cell cycle stage: G1/S) and with HeLa Kyoto [3] (cell cycle stage: mitosis) were 49.7 °C and 50.7 °C, respectively. Besides, in the series on HeLa Kyoto [4], the “solubility in G1/S (log2)” value stood at 0.638.

Regarding “MAERRRHKKRIQEVGEPSKEEKAVAKYLRFNCPTKSTNMMGHRVDYFIASKAVDCLLDSKWAKAKKGEEALFTTRESVVDYCNRLLKKQFFHRALKVMKMKYDKDIKKEKDKGKAESGKEEDKKSKKENIKDEKTKKEKEKKKDGEKEESKKEETPGTPKKKETKKKFKLEPHDDQVFLDGNEVYVWIYDPVHFKTFVMGLILVIAVIAATLFPLWPAEMRVGVYYLSVGAGCFVASILLLAVARCILFLIIWLITGGRHHFWFLPNLTADVGFIDSFRPLYTHEYKGPKADLKKDEKSETKKQQKSDSEEKSDSEKKEDEEGKVGPGNHGTEGSGGERHSDTDSDRREDDRSQHSSGNGNDFEMITKEELEQQTDGDCEEDEEEENDGETPKSSHEKS [SEC62]”, the “solubility change mitosis (log2)” value in the series on HeLa Kyoto [1] is 0.0142. Further, the results for the thermal stability score in the series with HeLa Kyoto [2] (setting [5]) and in the series on HeLa Kyoto [2] (cell cycle stage: mitosis) were -4.12 and -4.37, respectively. The results for the melting temperature with HeLa Kyoto [3] (cell cycle stage: G1/S) and in the series on HeLa Kyoto [3] (cell cycle stage: mitosis) were 55.5 °C and 55.4 °C, respectively. For the same substance, the “solubility in G1/S (log2)” value in the series on HeLa Kyoto [4] is -0.134.

In the case of “MPKAKGKTRRQKFGYSVNRKRLNRNARRKAAPRIECSHIRHAWDHAKSVRQNLAEMGLAVDPNRAVPLRKRKVKAMEVDIEERPKELVRKPYVLNDLEAEASLPEKKGNTLSRDLIDYVRYMVENHGEDYKAMARDEKNYYQDTPKQIRSKINVYKRFYPAEWQDFLDSLQKRKMEVE [NOP16]”, the “solubility change mitosis (log2)” value in the series with HeLa Kyoto [1] turned out to be 1.22. Also, the thermal stability score is -0.631 in the series with HeLa Kyoto [2] (setting [5]) and -6.32 in the series with HeLa Kyoto [2] (cell cycle stage: mitosis). Also, the melting temperature in the series on HeLa Kyoto [3] (cell cycle stage: G1/S) stood at 57.3 °C; in the series on HeLa Kyoto [3] (cell cycle stage: mitosis), 54.2 °C. Further, the “solubility in G1/S (log2)” value in the series with HeLa Kyoto [4] was -1.15.

As to “MFCVTPPELETKMNITKGGLVLFSANSNSSCMELSKKIAERLGVEMGKVQVYQEPNRETRVQIQESVRGKDVFIIQTVSKDVNTTIMELLIMVYACKTSCAKSIIGVIPYFPYSKQCKMRKRGSIVSKLLASMMCKAGLTHLITMDLHQKEIQGFFNIPVDNLRASPFLLQYIQEEIPDYRNAVIVAKSPASAKRAQSFAERLRLGIAVIHGEAQDAESDLVDGRHSPPMVRSVAAIHPSLEIPMLIPKEKPPITVVGDVGGRIAIIVDDIIDDVDSFLAAAETLKERGAYKIFVMATHGLLSSDAPRRIEESAIDEVVVTNTIPHEVQKLQCPKIKTVDISMILSEAIRRIHNGESMSYLFRNIGLDD [PRPSAP2]”, the “solubility change mitosis (log2)” value with HeLa Kyoto [1] is -0.121. Moreover, the thermal stability score was -0.303 in the series with HeLa Kyoto [2] (setting [5]) and -0.671 in the series on HeLa Kyoto [2] (cell cycle stage: mitosis). Besides, the figures for the melting temperature with HeLa Kyoto [3] (cell cycle stage: G1/S) and in the series with HeLa Kyoto [3] (cell cycle stage: mitosis) were 57.5 °C and 57.4 °C, respectively. Moreover, in the series with HeLa Kyoto [4], the “solubility in G1/S (log2)” value is 0.117.

Source of the values: the supplement of paper PMC5998384.
